Test results reported in publication PMC9601147.

Experiments:
Assay in all cases: SEC
[1] = target: His6 tagged recombinant IN(R269A/K273A/D256R) (HIV-1 (NL4-3))
[2] = target: His6 tagged recombinant IN(D256R/R262A/R263A) (HIV-1 (NL4-3))
[3] = target: His6 tagged recombinant IN(R269A/K273A/D256N/D270N) (HIV-1 (NL4-3))

Substance: His6 tagged recombinant IN(R269A/K273A/D256R) (enzyme)
- stoichiometry N [1]: 4

Substance: His6 tagged recombinant IN(D256R/R262A/R263A) (enzyme)
- stoichiometry N [2]: 4

Substance: His6 tagged recombinant IN(R269A/K273A/D256N/D270N) (enzyme)
- stoichiometry N [3]: 4
